Measurements: patent US20250163186A1 (PHYLAXIS BIOSCIENCE, published 2025)

Biological target: T1, human IgE (human, UniProt P01854 1-428)
T1 construct: written under the same molecule; also called IgE (Abcam ab65866); soluble IgE
Assay: ELISA, clone lysate on IgE-coated plate
Description: Each amino acid in CDR1 (SEQ ID NO:3), CDR2 (SEQ ID NO:68), and CDR3 (SEQ ID NO:74) was randomly replaced such that the 20 natural amino acids would likely all have been sampled at every position. The expression vector for the VHH containing the mutagenized CDRs was then transfected into E. coli, and at least 96 clones were randomly chosen for each position mutated in each CDR. This gives likely coverage of all potential mutations at each position since the probability to get any given amino acid at that position is 5%. […] The heat maps represent the relative binding for each clone determined by the range of OD values from the ELISA background to WT CDR binding (FIGS. 16A-16C). Site numbering for each residue tested is indicated by the inset tables in FIGS. 16A-16C.

T1 sequence (P01854 other isoform, or with tags, fused parts or gaps limits assumed, form in doubt): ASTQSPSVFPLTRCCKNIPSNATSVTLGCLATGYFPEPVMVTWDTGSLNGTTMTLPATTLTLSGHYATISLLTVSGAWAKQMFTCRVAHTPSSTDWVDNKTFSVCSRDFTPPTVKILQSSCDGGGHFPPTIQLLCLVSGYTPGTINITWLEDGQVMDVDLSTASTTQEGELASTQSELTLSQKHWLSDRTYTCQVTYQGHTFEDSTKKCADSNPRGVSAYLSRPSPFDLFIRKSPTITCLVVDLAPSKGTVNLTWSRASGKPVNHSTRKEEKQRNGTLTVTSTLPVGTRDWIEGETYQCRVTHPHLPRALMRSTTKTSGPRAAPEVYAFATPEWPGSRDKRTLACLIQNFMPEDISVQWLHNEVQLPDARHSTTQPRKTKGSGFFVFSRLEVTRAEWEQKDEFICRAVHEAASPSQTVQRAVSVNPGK

Confirm OD450 Duplicate1	Confirm OD450 Duplicate2	R1 Screening OD450	Binder
0.57	0.594	0.904	3-1B10 (VHH, also called hzB10v40 VHH, CDR1 site 3 T to K) VHH: EVQLLESGGGEVQPGGSLRLSCVASGLKFSSYNMGWLRQAPGKEREFVGLSGSSSTSTYYAESVKGRFTISRDNAKNTVYLQMTSLRAEDTAVYYCAARRLLSTYWSDRSWDFWGQGTLVTVEP
0.609	0.573	0.914	5A1 (VHH, also called hzB10v40 VHH, CDR1 site 5 S to K) VHH: EVQLLESGGGEVQPGGSLRLSCVASGLTFKSYNMGWLRQAPGKEREFVGLSGSSSTSTYYAESVKGRFTISRDNAKNTVYLQMTSLRAEDTAVYYCAARRLLSTYWSDRSWDFWGQGTLVTVEP
0.582	0.483	0.798	4-1F11 (VHH, also called hzB10v40 VHH, CDR1 site 4 F to P) VHH: EVQLLESGGGEVQPGGSLRLSCVASGLTPSSYNMGWLRQAPGKEREFVGLSGSSSTSTYYAESVKGRFTISRDNAKNTVYLQMTSLRAEDTAVYYCAARRLLSTYWSDRSWDFWGQGTLVTVEP
0.621	0.62	0.914	2-2C3 (VHH, also called hzB10v40 VHH, CDR1 site 2 L to V) VHH: EVQLLESGGGEVQPGGSLRLSCVASGVTFSSYNMGWLRQAPGKEREFVGLSGSSSTSTYYAESVKGRFTISRDNAKNTVYLQMTSLRAEDTAVYYCAARRLLSTYWSDRSWDFWGQGTLVTVEP

Continued, binder first:

Binder	Confirm OD450 Duplicate1	Confirm OD450 Duplicate2	R1 Screening OD450
2-1F11 (VHH, also called hzB10v40 VHH, CDR1 site 2 L to I) VHH: EVQLLESGGGEVQPGGSLRLSCVASGITFSSYNMGWLRQAPGKEREFVGLSGSSSTSTYYAESVKGRFTISRDNAKNTVYLQMTSLRAEDTAVYYCAARRLLSTYWSDRSWDFWGQGTLVTVEP	0.647	0.601	0.754
3-1H1 (VHH, also called hzB10v40 VHH, CDR1 site 3 T to I) VHH: EVQLLESGGGEVQPGGSLRLSCVASGLIFSSYNMGWLRQAPGKEREFVGLSGSSSTSTYYAESVKGRFTISRDNAKNTVYLQMTSLRAEDTAVYYCAARRLLSTYWSDRSWDFWGQGTLVTVEP	0.567	0.559	0.857
3-1B9 (VHH, also called hzB10v40 VHH, CDR1 site 3 T to N) VHH: EVQLLESGGGEVQPGGSLRLSCVASGLNFSSYNMGWLRQAPGKEREFVGLSGSSSTSTYYAESVKGRFTISRDNAKNTVYLQMTSLRAEDTAVYYCAARRLLSTYWSDRSWDFWGQGTLVTVEP	0.585	0.634	0.945
4-1F10 (VHH, also called hzB10v40 VHH, CDR1 site 4 F to Y) VHH: EVQLLESGGGEVQPGGSLRLSCVASGLTYSSYNMGWLRQAPGKEREFVGLSGSSSTSTYYAESVKGRFTISRDNAKNTVYLQMTSLRAEDTAVYYCAARRLLSTYWSDRSWDFWGQGTLVTVEP	0.697	0.545	0.709
3-1A1 (VHH, also called hzB10v40 VHH, CDR1 site 3 T to V) VHH: EVQLLESGGGEVQPGGSLRLSCVASGLVFSSYNMGWLRQAPGKEREFVGLSGSSSTSTYYAESVKGRFTISRDNAKNTVYLQMTSLRAEDTAVYYCAARRLLSTYWSDRSWDFWGQGTLVTVEP	0.607	0.572	0.896
5A10 (VHH, also called hzB10v40 VHH, CDR1 site 5 S to A) VHH: EVQLLESGGGEVQPGGSLRLSCVASGLTFASYNMGWLRQAPGKEREFVGLSGSSSTSTYYAESVKGRFTISRDNAKNTVYLQMTSLRAEDTAVYYCAARRLLSTYWSDRSWDFWGQGTLVTVEP	0.554	0.549	0.96
4-2E2 (VHH, also called hzB10v40 VHH, CDR1 site 4 F to G) VHH: EVQLLESGGGEVQPGGSLRLSCVASGLTGSSYNMGWLRQAPGKEREFVGLSGSSSTSTYYAESVKGRFTISRDNAKNTVYLQMTSLRAEDTAVYYCAARRLLSTYWSDRSWDFWGQGTLVTVEP	0.579	0.586	1.05
